The labels stand for the following.
B1: Im7-L18A L19A L37A (mimic of unfolded Im7, Im7U) (natural protein, UniProt Q03708 1-87, looked up)
chain: MELKNSISDYTEAEFVQAAKEIEKENVAATDDVLDVALEHFVKITEHPDGTDLIYYPSDNRDDSPEGIVKEIKEWRAANGKPGFKQG
B2: Im7-L53A I54A (mimic of the Im7 folding intermediate, Im7I) (natural protein, UniProt Q03708 1-87, looked up)
chain: B1 chain with A18L, A19L, A37L, L53A, I54A
B3: Immunity protein 7, wild type (Im7-WT) (natural protein, UniProt Q03708 1-87, looked up)
chain: B1 chain with A18L, A19L, A37L
B4: Spy (WT Spy), ATP-independent periplasmic chaperone (natural protein, Escherichia coli, UniProt P77754 24-161, looked up)
chain: ADTTTAAPADAKPMMHHKGKFGPHQDMMFKDLNLTDAQKQQIREIMKGQRDQMKRPPLEERRAMHDIIASDTFDKVKAEAQIAKMEEQRKANMLAHMETQNKIYNILTPEQKKQFNANFEKRLTERPAAKGKMPATAE

The target of experiment [1] is B4. The experiment can be described thus: stopped-flow fluorescence.
In experiment [2] the target is B4. The experiment in a line: ITC. (In general: ITC needs no label: the signal is the heat of the interaction.)
For experiment [3], the target named is B1. The experiment can be described thus: ITC.
The target of experiment [4] is B3. The experiment in a line: ITC.
Experiment [5] addresses B2. The experiment can be described thus: ITC.

Residue numbers refer to the chain shown, from its start. In names and notes the source's numbering stands.

A word on the koff: it is the rate constant with which the complex falls apart. A lower koff goes with a long-lived complex. A word on the kon: it is the rate constant with which the complex forms. The Kd is the equilibrium constant for the complex coming apart. High values mean weaker binding, low ones tighter binding. With B1, in experiment [1], the off-rate constant (koff) worked out at 210 s⁻¹ and the kon turned out to be 1.3e+07 M⁻¹ s⁻¹. Further, the Kd in experiment [2] worked out at 10.4 µM.

B2: the Kd in experiment [2] is 3.5 µM.

B3 showed a Kd in experiment [2] of 20.5 µM.

One may read the stoichiometry N as a count of units in the complex or per binding partner. Take B4: the “stoichiometry N” value in experiment [3], in experiment [4] and in experiment [5] was 1 Spy dimer per Im7 throughout.

These data come from paper PMC4847750 (Nature structural & molecular biology, 2015).
